Experiment [1] addresses Fibronectin (purified from horse serum) (horse) (UniProt Q28377). Description: cell-based or functional assay.
In experiment [2] the target is T1, Syndecan-1 overexpressed on T98G glioblastoma cells (mouse, UniProt P18828 23-311).
T1 construct: whole, on cells; also called T98G:S1
T1 sequence (looked up): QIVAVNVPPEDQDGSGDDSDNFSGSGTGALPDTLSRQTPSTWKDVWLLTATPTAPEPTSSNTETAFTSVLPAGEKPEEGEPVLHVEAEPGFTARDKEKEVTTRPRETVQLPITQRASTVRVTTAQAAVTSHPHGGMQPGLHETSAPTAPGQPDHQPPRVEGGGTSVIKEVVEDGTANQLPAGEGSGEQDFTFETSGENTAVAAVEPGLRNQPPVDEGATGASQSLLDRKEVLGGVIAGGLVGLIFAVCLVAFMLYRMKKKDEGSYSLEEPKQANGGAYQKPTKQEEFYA
Kind of experiment: GST pull-down of cell surface-bound FNIII13 and western blot, immunofluorescence.

The mark [3] stands for this setting: scale: relative increase in cpm over cells plated on fibronectin.

Chain of Fibronectin (purified from horse serum) (horse) (Q28377 32-2477): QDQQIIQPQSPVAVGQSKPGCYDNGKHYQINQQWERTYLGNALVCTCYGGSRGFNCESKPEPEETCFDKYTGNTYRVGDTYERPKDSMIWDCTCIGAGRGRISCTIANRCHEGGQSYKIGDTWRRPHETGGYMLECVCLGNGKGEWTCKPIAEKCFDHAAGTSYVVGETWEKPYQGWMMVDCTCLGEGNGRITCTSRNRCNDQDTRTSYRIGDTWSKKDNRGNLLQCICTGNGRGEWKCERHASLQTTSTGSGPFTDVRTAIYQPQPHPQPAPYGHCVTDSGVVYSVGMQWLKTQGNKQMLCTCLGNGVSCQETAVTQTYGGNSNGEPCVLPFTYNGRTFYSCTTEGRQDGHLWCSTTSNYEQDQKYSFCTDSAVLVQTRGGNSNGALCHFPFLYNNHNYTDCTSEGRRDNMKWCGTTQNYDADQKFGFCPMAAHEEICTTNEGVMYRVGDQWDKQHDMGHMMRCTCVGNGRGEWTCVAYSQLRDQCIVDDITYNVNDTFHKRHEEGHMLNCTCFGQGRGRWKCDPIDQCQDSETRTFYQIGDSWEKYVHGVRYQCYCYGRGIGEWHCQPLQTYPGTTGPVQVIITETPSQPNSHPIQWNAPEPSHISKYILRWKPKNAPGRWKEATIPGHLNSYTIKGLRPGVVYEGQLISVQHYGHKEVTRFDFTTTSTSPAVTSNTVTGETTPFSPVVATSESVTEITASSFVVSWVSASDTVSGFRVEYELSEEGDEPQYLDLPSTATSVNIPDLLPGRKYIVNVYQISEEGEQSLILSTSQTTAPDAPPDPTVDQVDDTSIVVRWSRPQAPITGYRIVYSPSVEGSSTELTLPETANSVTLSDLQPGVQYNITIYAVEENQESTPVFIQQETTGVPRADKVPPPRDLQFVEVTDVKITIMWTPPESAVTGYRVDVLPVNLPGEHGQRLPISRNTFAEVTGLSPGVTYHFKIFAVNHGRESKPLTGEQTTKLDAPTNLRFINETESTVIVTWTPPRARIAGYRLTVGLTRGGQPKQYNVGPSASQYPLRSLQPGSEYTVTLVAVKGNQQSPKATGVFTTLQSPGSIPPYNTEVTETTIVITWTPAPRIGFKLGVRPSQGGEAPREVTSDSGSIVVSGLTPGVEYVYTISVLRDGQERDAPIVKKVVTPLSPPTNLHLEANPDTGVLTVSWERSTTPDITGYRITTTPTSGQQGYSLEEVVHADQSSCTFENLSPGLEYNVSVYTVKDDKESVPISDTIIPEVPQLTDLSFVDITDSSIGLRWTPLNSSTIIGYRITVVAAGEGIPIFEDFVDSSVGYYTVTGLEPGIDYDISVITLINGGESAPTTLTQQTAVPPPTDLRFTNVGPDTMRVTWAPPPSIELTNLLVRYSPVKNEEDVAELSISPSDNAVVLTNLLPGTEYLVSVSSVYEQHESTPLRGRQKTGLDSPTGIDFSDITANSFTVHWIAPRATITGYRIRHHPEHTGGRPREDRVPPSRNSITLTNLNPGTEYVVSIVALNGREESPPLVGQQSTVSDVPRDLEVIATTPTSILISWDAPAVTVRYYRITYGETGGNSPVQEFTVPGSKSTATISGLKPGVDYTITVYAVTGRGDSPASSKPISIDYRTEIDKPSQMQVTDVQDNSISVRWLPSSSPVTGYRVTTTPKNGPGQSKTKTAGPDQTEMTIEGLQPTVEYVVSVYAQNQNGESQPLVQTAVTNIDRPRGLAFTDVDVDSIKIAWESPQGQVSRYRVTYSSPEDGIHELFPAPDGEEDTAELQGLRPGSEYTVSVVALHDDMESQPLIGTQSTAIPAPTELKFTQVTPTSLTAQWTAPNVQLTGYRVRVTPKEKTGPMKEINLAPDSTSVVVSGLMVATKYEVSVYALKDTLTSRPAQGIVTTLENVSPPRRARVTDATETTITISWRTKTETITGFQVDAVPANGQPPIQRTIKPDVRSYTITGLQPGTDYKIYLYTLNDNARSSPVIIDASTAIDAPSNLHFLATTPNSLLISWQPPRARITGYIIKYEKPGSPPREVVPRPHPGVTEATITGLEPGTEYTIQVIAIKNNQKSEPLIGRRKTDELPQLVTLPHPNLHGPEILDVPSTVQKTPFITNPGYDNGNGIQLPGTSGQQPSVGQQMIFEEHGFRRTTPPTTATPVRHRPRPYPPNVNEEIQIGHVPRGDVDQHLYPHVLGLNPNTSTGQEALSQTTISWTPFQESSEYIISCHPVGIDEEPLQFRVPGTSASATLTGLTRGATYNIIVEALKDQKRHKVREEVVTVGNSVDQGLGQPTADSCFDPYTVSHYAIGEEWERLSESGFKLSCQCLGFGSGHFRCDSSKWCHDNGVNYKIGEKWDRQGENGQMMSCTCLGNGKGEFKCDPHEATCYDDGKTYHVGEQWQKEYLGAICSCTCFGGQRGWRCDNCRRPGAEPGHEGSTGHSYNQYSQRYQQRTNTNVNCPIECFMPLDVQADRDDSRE

For “Full length chicken tenascin-C TN260 (from UniProt P10039 34-1808)”, in experiment [1], the CHO-B2 cells (ITS) attached on FN/TN substratum, 20 h (% of cells attached on fibronectin) is 31.5; the CHO-B2α27 cells (ITS) attached on FN/TN substratum, 20 h (% of cells attached on fibronectin) was 45.1; the CHO-K1 cells (ITS) attached on FN/TN substratum, 20 h (% of cells attached on fibronectin) was found to be 37.9; the MDA MB 435 cells (insulin) attached on FN/TN substratum, 20 h (% of cells attached on fibronectin) was 62.2. For the same molecule, in experiment [1], the MDA MB 435 cells attached on FN/TN substratum, 1 h (% of cells attached on fibronectin) amounted to 24.5; the MDA-MB435 cell number on fibronectin/tenascin-C against fibronectin, 51 h is 24 % more cells; the MDA-MB435 cell number on fibronectin/tenascin-C against fibronectin, 75 h came out at 33 % more cells; the T98G cells (PDGF-BB) attached on FN/TN substratum, 20 h (% of cells attached on fibronectin) was determined as 50.4. In experiment [1], this molecule displayed a T98G cells attached on FN/TN substratum, 1 h (% of cells attached on fibronectin) of 31.9 and a T98G cells partially spread on mixed fibronectin/tenascin-C substratum after 20 h of 45%. In experiment [1] (setting [3]), this molecule returned a DNA replication (3H-thymidine incorporation) of CHO-B2 cells on FN/TN of 2.6, a DNA replication (3H-thymidine incorporation) of CHO-B2α27 cells on FN/TN of 2.5, a DNA replication (3H-thymidine incorporation) of CHO-K1 cells on FN/TN of 2.3 and a DNA replication (3H-thymidine incorporation) of MDA MB 435 cells on FN/TN of 1.8. This molecule showed a DNA replication (3H-thymidine incorporation) of T98G cells on FN/TN in experiment [1] (setting [3]) of 3.
In experiment [1], “Syndecan-4 overexpressed on T98G glioblastoma cells (receptor)” came in with an attachment of syndecan-4 overexpressing T98G:S4 cells on fibronectin/tenascin-C substratum of 64.7%.

B1: Recombinant 13th fibronectin type III repeat (FNIII13) (other)
chain: NVSPPRRARVTDATETTITISWRTKTETITGFQVDAVPANGQTPIQRTIKPDVRSYTITGLQPGTDYKIYLYTLNDNARSSPVVIDAST
notes: Obtained as in Bloom et al 1999; also called GST-tagged FNIII13; not shown: GST tag and His tag (pulled down with glutathione Sepharose, detected with anti-GST and anti-His, isolated on Ni-NTA)
For B1, the binding result in experiment [2] was “no binding”.

For the origin of these results see patent US20040259781A1 (Novartis, published 2004).
